In the RNAGym collection of RNA variant scans (doi:10.1073/pnas.2313332121):

B1: TPR t1 (parent)
chain: GACCAAUCUGCCCUCAGAGCUCGAGAACAUCUUCGGAUGCAGAGGAGGCAGGCUUCGGUGGCGCGAUAGCGCCAACGUCCUCAACCUCCAAUGCAUCCCACCACAUGAUGAUGCCUGAAGAGCCUUGGUUUUUUG

Variants of: B1
Test: polymerase ribozyme fitness, log enrichment relative to wild type (log ratio); higher = more active; in vitro selection for triplet polymerase activity
In short: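 Fitness measures genotype enrichment against wild-type enrichment on a logarithmic scale, with inverse-variance-weighted averaging of replicates. The logarithm is base 2, and genotypes were kept only with ≥10 input reads and ≥1 read per output in Illumina sequencing. The sequenced libraries came from one triplicate in vitro selection round, including frozen incubation at −7 °C, of PCR-built, transcribed mutant libraries of each subunit of a heterodimeric triplet polymerase ribozyme.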

Row | Variant | polymerase ribozyme fitness (log ratio)
1 | GACCAAUCUGCCCUCAGAGCUCGAGAACAUCUUCGGAUGUAGAGGAGGCAGGCUUCGGUGGCGCGAUAGCGCCAACAUCCUCAACCUCCAAUGCAUCCCACCACAUGAUGAUGCCUGAAGAGCCUUGGUUUUUUG | -1.17
2 | GACCAAUCUGCCCUCAGAGCUCGAGAACAUCUUCGGAUGCCGAGGAGGCAGGCUUCGGUGGCGCGAUAGCGCCAAAGUACUCAACCUCCAAUGCAUCCCACCACAUGAUGAAGCCUGAAGAGCCCUGGUUUUUUG | -2.16
3 | GACCAAUCUGCCCUCAGAGCUCGAGAACAUCUUCGGAUGCCGAGGAGGCAGGCUUCGGUGGCGCGAUAGCGCCAACGUCCUCAACCUCCAAUGCAUCCCACCACGUGAUGAUGCCUGAAGAGCCUUGGUUUUUUG | -3.93
4 | GACCAAUCUGCCCUCAGAGCUCGAGAACAUCUUCGGAUGCCGAGGAGGCAGGCUUCGGUGGCGCGAUAGCGCCAACGUCCUCAACCUCCAAUGCAUCCCACCACCUGAUGAUGCCUGAAGAGCCUUGGUUUUUUG | -5.23
5 | GACCAAUCUGCCCUCAGAGCUCGAGAACAUCUUCGGAUGUAGAGGAGGCAGGCUUCGGUGGCGCGAUAGCGCCAACGUCCUCAACCUCCAAUGCAUCCCACCACAUGAUGAUGCCAGAAGAGCCUUGGUUUUUUG | -3.34
6 | GACCAAUCUGCCCUCAGAGCUCGAGAACAUCUUCGGAUGCCGUGGAGGCAGGUUUCGGUGGCGCGAUAGCGCCAACGUCCUCAACCUCCAAUGCAUCCCACCACAUGAUGAUGCCUGAAGAGCCUCGGUUUUUUG | -2.72
7 | GACCAAUCUGCCCUCAGAGCUCGAGAACAUCUUCGGAUGUAGAGGAGGCAGGCUUCGGUGGCGCGAUACCGCCAACGACCUCAACCUCCAAUGCAUCCCACCACAUGAUAAUGCCUGAAGAGCCUUGGUUUUUUG | -5.28
8 | GACCAAUCUGCCCUCAGAGCUCGAGAACAUCUUCGGAUGCCGAGGAGGCAGGCUUCGGUGUCGCGAUAGGGCCAACGUCCUCAACCUCCAAUGCAUCCCAACACAUGAUGCUGCCUGAAGAGCCUUGGUUUUUUG | -5.73
9 | GACCAAUCUGCCCUCAGAGCUCGAGAACAUCUUCGGAUGCCGAGGAGGCAGGUUUCGGUGGCGCGAUAGCGCCAACGUCCUCAACCUCCAAUGCAUCCCACCACAUGAUGAUGCCUGAAGAGCCUUGGUUUUUUG | -0.83
10 | GACCAAUCUGCCCUCAGAGCUCGAGAACAUCUUCGGAUGCCGAGGAGGCAGGCUUCGGUGGUGCGAUAGCGCCAACGUCCUCAACCUCCAAUGCAUCCCACCACAUGAUAAUGCCUGAAGAGCCUUGGUUUUUUG | -3.63
11 | GACCAAUCUGCCCUCAGAGCUCGAGAACAUCUUCGGAUGCCGAGGAGGCAGGCUUCGGUGGCGCGAUAGCGCCUACGUCCUCAACCCCCAAUGCAUCCCACCACAUGAUGAUGCCUGAAGAGCCUUGGUUUUUUG | -0.35
12 | GACCAAUCUGCCCUCAGAGCUCGAGAACAUCUUCGGAUGCCGAGGAGGCAGGCUUCGGUGGCGCGAUAGAGCCAACGUCCUCAACCUCCAAUGCAUCCCACCACAUGAUGAUGCCUGGAGAGCCUUGGUUUUUUG | -3.8
13 | GACCAAUCUGCCCUCAGAGCUCGAGAACAUCUUCGGAUGUAGAGGAGGCAGGCUUCGGUGGCGCGAUAGCGCCAACGUCCUCAACCUCCAAUGCAUCCCACCACAUGAUGAUGCCUGAAGAGCCUUGGUGUUUUG | -0.974
14 | GACCAAUCUGCCCUCAGAGCUCGAGAACAUCUUCGGAUGCCGAGGAGGCAGGCUUCGGUGGCGCGAUAGCGUCGACGUCCUCAACCUCCAUUGCCUCCCACCACAUGAUGAUACCUGAAGAGCCUUGGUUUUUUG | -3.31
15 | GACCAAUCUGCCCUCAGAGCUCGAGAACAUCUUCGGAUGCCGAGGAGGCAGGCUUCGGUGGCGCGAUAGCGCCAACGUCCUUAACCUCCAAUGCAUCCCACCACAUGAUGAUGCCUGAAGAGCCUUGGUUUUUUG | -1.12
16 | GACCAAUCUGCCCUCAGAGCUCGAGAACAUCUUCGGAUGCCGAGGAGGCAGGCUUCGGUGGCGUGAUAGCGCCAACGCCCUCAACCUCCAAUGCAUCCCACCACAAGAUGAUGCCUGAAGAGCCUUGGUUUUUUG | -1.57
17 | GACCAAUCUGCCCUCAGAGCUCGAGAACAUCUUCGGAUGCCGAGGAGGCAGGCUUCGGUGGCGCGAUAGCGCCAACGUCCUCAACCUCCAAUGCAUCCCACCACAUGAUGAUGCCUGAAGAGACUUGGUUUUUUG | -0.408
18 | GACCAAUCUGCCCUCAGAGCUCGAGAACAUCUUCGGAUGCCGAGGAGGCAGGCUUCGGUGGCGCGAUAGCGCCAACGUCCUCAACCUCCCAUGCAUCCCACCACAUGAUGAUGCCUGAAGAGGCUUGCUUUUUUG | -2.07
19 | GACCAAUCUGCCCUCAGAGCUCGAGAACAUCUUCGGAUGUAGAGGAGGCAGGCUUCGGCGGCGCGAUAGCGCCAACGUCCUCAAGCUCCAAUGCAUCCCACCACAUGAUGAUGCCUGAAGAGCCUUGGUUUUUUG | -2.73
20 | GACCAAUCUGCCCUCAGAGCUCGAGAACAUCUUCGGAUGCCGAGGAGACAGGCUUCGGUAGCGCGAUAGCGCCAACGUCCUCAACUUCCAAUGCAGCCCACCACAUGAUGAUGCCUGAAGAGCCUUGGUUUUUUG | -3.39
21 | GACCAAUCUGCCCUCAGAGCUCGAGAACAUCUUCGGAUGUAGAGGAGGCAGGCUUCGGUGGCGCGAUAGCGCCAACGUCCUCAACCUCCAACGCAUCCCACCACAUGAUGAUGCCUGAAGAGCCUUGGUUUUUUG | -1.86
